Measurements reported in paper PMC5709507.

Experiments:
[1] = molecular target: endogenous RORα of mouse cerebellar neurons and cerebellum (UniProt P51448); experiment: co-immunoprecipitation (IP: FLAG, IB: RORα), quantified output band corrected by input band; settings: primary cerebellar neurons, transient expression; n = 3; parent: est. 3.2; read off a plot
[2] = molecular target: endogenous RORα of mouse cerebellar neurons and cerebellum (UniProt P51448); experiment: co-immunoprecipitation (IP: RORα, IB: FLAG), quantified output band corrected by input band; settings: primary cerebellar neurons, transient expression; n = 3; parent: est. 0.42; read off a plot

Sequence of UniProt P51448 (P51448 whole entry): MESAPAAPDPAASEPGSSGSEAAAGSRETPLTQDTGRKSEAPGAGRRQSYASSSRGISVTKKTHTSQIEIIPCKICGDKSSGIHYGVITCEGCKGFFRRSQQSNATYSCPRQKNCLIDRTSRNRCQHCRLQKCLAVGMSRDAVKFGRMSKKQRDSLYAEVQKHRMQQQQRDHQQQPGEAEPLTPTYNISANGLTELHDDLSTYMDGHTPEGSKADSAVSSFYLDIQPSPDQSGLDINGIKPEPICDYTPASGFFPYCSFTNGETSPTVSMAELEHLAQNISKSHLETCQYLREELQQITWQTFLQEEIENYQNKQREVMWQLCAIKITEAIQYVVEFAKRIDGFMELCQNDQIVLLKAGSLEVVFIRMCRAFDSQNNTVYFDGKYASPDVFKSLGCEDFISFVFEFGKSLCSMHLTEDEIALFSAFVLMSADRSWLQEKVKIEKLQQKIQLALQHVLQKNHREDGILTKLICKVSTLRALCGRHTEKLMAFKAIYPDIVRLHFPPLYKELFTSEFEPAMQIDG

response [1]: 3.1
response [2]: 0.4
Substance: Human YAP2 WT (FLAG-YAP2 WT) WQDP>AQDA (first WW domain)
